Laboratory results reported in the nanobody polyreactivity screen of Harvey et al. (2022).

Assay: yeast display, Sf9 membrane polyspecificity reagent, FACS + sequencing; frameworks hold sequencing errors
Method in brief: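 Polyreactivity labels are assigned by the sorting gate from which each nanobody was recovered. The gates were low and high (top ~1%), set on anti-HA fluorescence for expression and streptavidin fluorescence for reagent binding. Before sorting, galactose-induced (36–48 hours) yeast display cells were stained for 1 hour at 4 °C with 10% biotinylated, detergent-solubilized Sf9 membrane reagent.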

Sequence | polyreactivity (PSR sort gate)
QVQLVESVGGLVQAGGSLRLSCAASGGTFFYNSMGWYRQAPGKEREFVAAINGGTSTNYADSVKGRFTISRDNAKNTVYLQMNSLKPEDTAVYYCAAVYRRLGRFDWYDYWGQGTQVTVSS | low polyreactivity
QVQLVESVGGLVQAGGSLRLSCAASGITFDRNAMGWYRQAPGKERELVAAISSGGTYADSVKGRFTISRDNAKNTVYLQMNSLKPEDTAVYYCNADTDYIRWIYGYWGQGTQVTVSS | low polyreactivity
QVQLVESVGGLVQAGGSLRLSCAASGITFSLYAAMGWYRQAPGKERELVAAISWRGGNTYYADSVKGRFTISRDNAKNTVYLQMNSLKPEDTAVYYCAARRTNLPVNFYYWGQGTQVTVSS | high polyreactivity
QVQLVESVGGLVQAGGSLRLSCAASGITYYGYAMGWYRQAPGKERELVAAISKSGGSTHYADSVKGRFTISRDNAKNTVYLQMNSLKPEDTAVYYCNSRSLVFPITFWEYDYWGQGTQVTVSS | low polyreactivity
QVQLVESVGGLVQAGGSLRLSCAASGLIFSRYAMGWYRQAPGKERELVAAITSGTSTYYADSVKGRFTISRDNAKNTVYLQMNSLKPEDTAVYYCARRYRGGYKYDYWGQGTQVTVSS | high polyreactivity
QVQLVESVGGLVQAGGSLRLSCAASGLIFVRYAMGWYRQAPGKERELVATITWSGGTTYADSVKGRFTISRDNAKNTVYLQMNSLKPEDTAVYYCAVEWPAWTDSDYPVGGHAFGYWGQGTQVTVSS | low polyreactivity
QVQLVESVGGLVQAGGSLRLSCAASGLTCYGKTMGWYRQAPGKDRELVAAISFDGGNTYADSVKGRFTISRDNAKNTVYLQMNSLKPEDTAVYYDYWGQGNQVTVSS | low polyreactivity
QVQLVESVGGLVQAGGSLRLSCAASGNTFSLYAMGWYSQAPGKERELVAAITWITGSTDYADSVKGRFTISRDNAKNTVYLQMNSLKPEDTAVYYCAADGDFSWFYSYETGWIEYDYCGQGTQVTVSS | low polyreactivity
QVQLVESVGGLVQAGGSLRLSCAASGRIFRSYTMGWYREATGKERELVAGIRASGGSTYYADSVKGRFTISRDNAKNTVYLQMNSVKPEDTAVYYCAARRYTTFGIRDYWGQGTQVTVSS | high polyreactivity
QVQLVESVGGLVQAGGSLRLSCAASGRIFTLYAMGWYRQAPGKERELVAAISWSGGSTYYADSVKGRFTISRDNAKNTVYLQMNSLKPEDTAVYYCAATWYRYYSIPRYDSWGQATQVTVSS | high polyreactivity
QVQLVESVGGLVQAGGSLRLSCAASGRIFYPYAMGWYRQAPGKERELVAAITRGGITTYADSVYGRFTISRDNAKNTVYLQMNSLKPEDTAVYYCNAVRWYGRMDYWGQGTQVTVSS | low polyreactivity
QVQLVESVGGLVQAGGSLRLSCAASGRIYVYVMGWYIQSPGKERELVAAITSGGSTYYADSVKGRFTISRDNAKNTDYLQMNSLKPEDTAVYYCAADVNGGYDYYYFVSIVYYWGQGTQVTVSS | low polyreactivity
QVQLVESVGGLVQAGGSLRLSCAASGRTCGYKAMGWYRQAPGKERQLVAAISRGGSTNYADSVKGRFTISRDNAKNSVYLQMNSLKPEDTAVYYCAKTIRAYRPSRTAYRLDYWGQGTQVTVSS | high polyreactivity
QVQLVESVGGLVQAGGSLRLSCAASGRTFRAYSMGSYRQAPGKETELVAAIRSGTSTNYADSVKGRFTISRDNAKNTVYLQMNSLKPEDTAVYYCAARWWYYIGGRDYWGHGTQVTVSS | high polyreactivity
QVQLVESVGGLVQAGGSLRLSCAASGRTFRNNAMGWYRQAPGTEREFVAVISNTGGSTYYADSVKGRFTISRDNAKNTVYLQLNSLKPEDTAVYYCAVRPRYSQYYYWGQGTQVTVSS | high polyreactivity
QVQLVESVGGLVQAGGSLRLSCAASGRTFVYNAMGWYRQAPGKEREFVGAISDGGGDTYYADSVKGRFTISRDNAKNTVFLQMNSLKPEVTAVYYCNVEWQQPGYAFDYCGQGTQVTVSS | low polyreactivity
QVQLVESVGGLVQAGGSLRLSCAASGRTFYFYAMGWYRQAPGKERELVASITSSGGNTYYADSVKGRFTISRDNAKNTVYLQMNSLKPEDTAVYYCAARWFPWLQWKRYVYWGQGTQVTVSS | low polyreactivity
QVQLVESVGGLVQAGGSLRLSCAASGRTFYTNAMGWYRQAPGKERELVAAITRGTSTSYADSVKGRFTISRDNAKNTVYLQMNSLKPEDTAVYYCAARGTQYSPSKSWFYYWGQGTQVTVSS | high polyreactivity
QVQLVESVGGLVQAGGSLRLSCAASGRTLLYNAMGWYRQAPGKERELVAAISRGGSTYYADSVNGRFTISRDNAKNTVYLQMNSLKPEDTAVYYCATGTWRYRYDYWGQGTQVTVSS | low polyreactivity
QVQLVESVGGLVQAGGSLRLSCAASGSIFGFYAMGWYRQAPGKERELDAVISSDASKNYADSVKGRFTISRDNAKNTVYLQMKSLKPEDTAVYYCNAVAYGYHFFSYYSVDYWGQGTQVTVSS | low polyreactivity
QVQLVESVGGLVQAGGSLRLSCAASGSIFKYYAMGWYRQEPGKERELVAAITIGGNTNYADSVKGRFTISRDNAKNTVYLQMNSLKPEDTAVYYCATGGYYSAIVYGGYDYWGQGTQVSVSS | low polyreactivity
QVQLVESVGGLVQAGGSLRLSCAASGSIFRLYALGWSRQAPGKERELVAAIRYSTGRTYSADSVKGRFTISRDNAKNTVYLQMNSLKPEDTAVYYCNARSWYIRGSQEYYYWGQGTQVTVSS | high polyreactivity

Sequence | polyreactivity (PSR sort gate)
QVQLVESVGGLVQAGGSLRLSCAASGSIFVTNAMGWYRQAPGKERELVAAISSGGNTNYADSVKGRFTISRDNAKNTVYLQMNSRKPEDTAVYYCAKDPDKVDYVDMDYWGQGTQVTVSS | low polyreactivity
QVQLVESVGGLVQAGGSLRLSCAASGSIFWPNAMGWYRQAPGKERELVATISGSGGSTYYADSVKGRFTISRDNAKNTVYLQMNSLKPEDTAVYYCAADYRYGRYDYWGQGTQVTVSS | high polyreactivity
QVQLVESVGGLVQAGGSLRLSCAASGSIFWWYAMGLARQAPGKERELVAAISTRDGNTYYADSVKGRFTISRDNANNTVYLQMNSLKPEDTAVYYCAADYFRYYPYDYWGQGTQVTVSS | low polyreactivity
QVQLVESVGGLVQAGGSLRLSCAASGSIFYNNAMGWYRQAPGKDRELVAAIRSTGTRTYYADSVKGRFTISRDHAKNTVYLQMNSLKAEDTAVYYCAVGDYGLWSYDYWGQGTQLTVSS | low polyreactivity
QVQLVESVGGLVQAGGSLRLSCAASGSIRSYAIGWYRQAPGKERELVAAITRSGGSTYYADSVKGRFTISRDNAKNTVYLQMISLKPEDTAVYYCAARYTYSYPLFGSWGQGTQVTVSS | high polyreactivity
QVQLVESVGGLVQAGGSLRLSCAASGSTFAANAMGWYRQAPGKASELVAAITSVGTTYYADSVKGRFTISRDNGKNTVYLQMNSLKPEDTEVYYCNAEYGVWYDYLVVPYDYWGQGTQVTVSS | low polyreactivity
QVQLVESVGGLVQAGGSLRLSCAASGSTFAGYAMGWYRQAPGKERELVATITYSGGSTYYADSVKGRFTISRDNAKNTVYLQMNSLKPEDTEVYYCAKKASYWWGYEYWGQGTQVTVSS | low polyreactivity
QVQLVESVGGLVQAGGSLRLSCAASGSTFRYNAMGWYRQAPGKERELVATISSDGITYYADSVNGRFTISRDNAKNTVYLQMNRLKPEDTAVYYCAASYAGGFDYWGQGTQVTVSS | high polyreactivity
QVQLVESVGGLVQAGGSLRLSCAASGSTFVGNAMGWYRQAPGKERELVAAITGGGGSTYYADSVKGRFTISRDNAKNTVYLQMNSLKPEDTAVYYCAREYTYYPRWVGYDAYGEDYWGQGTQVTVSS | low polyreactivity
QVQLVESVGGLVQAGGSLRLSCAASGSTFYENTMGWYRQAPGKERELVAAISFRGGSRYYADSVKGRFTISRDNAKNTVYLQMNSLKPEDTAVYYCNADDSPVPSIRFDYWGEGTQVTVSS | low polyreactivity
QVQLVESVGGLVQAGGSLRLSCAASGSTFYFNAMGWYRQAPGKERELVAAIDWSGGSTYYADSVKGRFTISRDNAKNTVYLQMNSLKPEDTAVYYCAAPYHYYGNTVGYADYDYWGQGTQVTVSS | low polyreactivity
QVQLVESVGGLVQAGGSLRLSCAASGSTIRYYAIAWYRQAPGKERELVAAITSSGGRTYYADSVKGRFTISRDYAKNTVYLQMNSLKPEDTAVYYCAAYAYYHTGDDYWGQGTQVTVSS | high polyreactivity
QVQLVESVGGLVQAGGSLRLSCAASGSTLYQYAMGWYRQAPGKERELVAAITKSGGRTYYADSVKGRFTISRDNAKNTVYLQMNSLKPEDTAVYYCNVVRGSYSSGGDYWGQGTQVTVSS | high polyreactivity
QVQLVESVGGLVQAGGSLRLSCAASGYIFGHYTMRWYRQAPGKERELVAGISSGGITYYADSVKGRFTISRDNAKNTVYLQMNSLKPEDTAVYYCAVGTRVKYDYWGQGTQVTVSS | high polyreactivity
QVQLVESVGGLVQAGGSLRLSCAASGYTFPDYAMGWYRQAPGKEREFVATISWSGTSTYYADSVKGRFTISRDNAKNTVYLQMNSLKPEDTAVDYCNASAYYPPSSSRYDYWGQGTQVTVSS | low polyreactivity
QVQLVESVGGLVQAGGSLRLSCAASRIFRGYAMGRYRQAPGKERELVAAIRRGGSTNYADSVKGRFTISRDNAKNSVYFQMNSLKPEDTEVYYCAADFYYDRDVDYWGQGTQVTVSS | high polyreactivity
QVQLVESVGGLVQAGGSLRLSCAAYGLTFRYYAMGWYRQSPGKESELDAAISSGGSTNYADSVKGRFTISRDNAKNTVYLQMNSLKPEDTAVYYCAAVSNSKWGRWGRAKYNYWGQGTQVTVSS | high polyreactivity
QVQLVESVGGLVQAGGSLRLSCAAYGYTFYSNAMGWYRQAPGKDRELVASIRSRGRSTYYADSVKGRFTISRDNAKNTVYLQMNSLKPEDTAVYYCAPLPNNPAVYAYDYWGEGTQVTVSS | low polyreactivity
QVQLVESVGGLVQAGGSLRLSCASSGFTFRFYVMGWSRQAPGKERELVAAITASGGTTYYADSVKGRFTISRDNAKNTVYLQMNSLKPEDTAVYYCNARYYYLYGYDYWGQGTQVTVSS | high polyreactivity
QVQLVESVGGLVQAGGSLRLSCASSGRIFAWYGMGSYRQAPGKEMELVAAINSGGRTYYEDSVKGRFTISRVNAKNTVYLQMNSLKPEDTAVYYCAAKLAAYGWRFHYGYWGQGTQVTVSS | high polyreactivity
QVQLVESVGGLVQAGGSLRLSCDATGNTFRIYAMGWYIHAPGKERQLVAAISQSGGSTYYADSVKGRFTISRDNAKNTVYLQMHSLKPEDTAVYYCNRRFAPFWGRDGYWGQGTQVTVSS | high polyreactivity
